Data reported in patent US20140079706A1.

Assays:
Assay in all cases: cell-based or functional assay
[1] = target: CSF-1R on cynomolgous monocytes (cynomolgous)
[2] = target: human mutant CSF-1R L301S Y969F, full-length, on NIH 3T3 cells (human) (UniProt P07333)
[3] = target: human wildtype CSF-1R (wt CSF-1R), full-length, on cells (human) (UniProt P07333)

| % inhibition at 20 µg/ml, mutant CSF-1R cells [2] [%] | Substance | % inhibition (of survival) = (100% - % survival), cynomolgous monocytes, 5 µg/ml antibody [1] [%] | % survival of cynomolgous monocytes at 5 µg/ml antibody (150 ng/ml huCSF-1, CellTiterGlo) [1] [%] | Mutant CSF-1R IC30 (cell viability, CellTiterGlo, 3D spheroids) [2] [µg/mL] | Mutant CSF-1R IC50 (cell viability, CellTiterGlo, 3D spheroids) [2] [µg/mL] | wtCSF-1R IC30 (cell viability, CellTiterGlo, 3D spheroids) [3] [µg/mL] | wtCSF-1R IC50 (cell viability, CellTiterGlo, 3D spheroids) [3] [µg/mL] |
| --- | --- | --- | --- | --- | --- | --- | --- |
|  | Anti CSF-1R SC 2-4A5 (Santa Cruz Biotechnology, US) (antibody) | 69 | 31 | 2.56 | 10 | 16.6 | 10 |
| 0 | goat polyclonal anti-CSF-1R antibody ab10676 (abcam) |  |  | > 20 |  | 14.2 |  |
